# Test: soluble on expression in E. coli; label from the status in PepcDB or PDB records
row,Sequence,soluble on expression in E. coli
1,MQALQERLEKLENATGSEVWEVLKASEPELRQDLSSLQKLKADKESAAREALTALKTKKNELKNLKNDVESLKNEYKTYIEMVENGLKQSGLDIKQVVQVFERVLEESLSEKRLAILSTIDSAHISDIKSIKTPVKSILKLLEDPNKLQLRILVQSELREFSNSAIEIFRRSLWDLFQNQGIPMKNLGEMPNSEDFLQKIGELFQFSTDLDKLIAGNWGKSIENLISAAFGQLSNYCIDIIENERGEADFEWILKSSHDWAKNLSQILQKTVEKSNLESELKQEFEEKFNEKFVDFIKLITRKFLEKNIKEPTIFSNVAQMLKKFKISSEFNLSGDRDLQEPFYEPKFMSRWILVYYIVAKISEYPVLTQLFAPLKITVVSKKIFFF,not soluble
2,MGSDKIHHHHHHMKRLAFVISSLGAGGAEKVLSLMSHYLAQKGISLTLISLGDSKSFYPLPAQAKIIALGECRSSKGVIDSLFQNLRRIQKLRQALRAARPDLILSFMTETNILSIIAAKSLGIPVIASEHTNYLWQPSRLWNRLRHLLYPLASATTLLTQRDKENHYGFLPQAKILPNPFDFPPLSPTPKEKIILGVGRLIKDKGFDRLIRAFSRISIGDYQLLIAGEGEERVRLEELIQSLGMEEKIHLLGSQKEIYPLYERASIFVLSSSMEGLSNALIEAMSMGCAVISFDCPYGPSEVITPQENGLLVPLHDEVALQEAMERLIQEEPLRQKLSQNAPKVRERFAIDRVMPQWEELMRSILDSTPSCSKES,not soluble
3,QLTAAQELMIQQLVAAQLQCNKRSFSDQPKVTPWPLGADPQSRDARQQRFAHFTELAIISVQEIVDFAKQVPGFLQLGREDQIALLKASTIEIMLLETARRYNHETECITFLKDFTYSKDDFHRAGLQVEFINPIFEFSRAMRRLGLDDAEYALLIAINIFSADRPNVQEPGRVEALQQPYVEALLSYTRIKRPQDQLRFPRMLMKLVSLRTLSSVHSEQVFALRLQDKKLPPLLSEIWDVHE,not soluble
4,MGGFLVLNSSNNVVRTVPSKKRKHPEYKSKGSQIRELISGIRSDNLREAVRLPQGVDINEWFAMNNFFNQISLLYATLEEFCTQTTCPVMNAGRYEYRWADGTTITKPKTVSAPKYVEYLIDWVETEIDNEAIFPKNPGEPFPPNFEDFVKRILRKLFRVYAHIYYSHFHEIVALNEQAHLNTCFKHFLLFVSEFQLVDKEKEMAPIKSLVETMLDQ,soluble
5,MHHHHHHMSWNHQSVEIAVRRTTVPSPNLPPGFDFTDPAIYAERLPVAEFAELRSAAPIWWNGQDPGKGGGFHDGGFWAITKLNDVKEISRHSDVFSSYENGVIPRFKNDIAREDIEVQRFVMLNMDAPHHTRLRKIISRGFTPRAVGRLHDELQERAQKIAAEAAAAGSGDFVEQVSCELPLQAIAGLLGVPQEDRGKLFHWSNEMTGNEDPEYAHIDPKASSAELIGYAMKMAEEKAKNPADDIVTQLIQADIDGEKLSDDEFGFFVVMLAVAGNETTRNSITQGMMAFAEHPDQWELYKKVRPETAADEIVRWATPVTAFQRTALRDYELSGVQIKKGQRVVMFYRSANFDEEVFQDPFTFNILRNPNPHVGFGGTGAHYCIGANLARMTINLIFNAVADHMPDLKPISAPERLRSGWLNGIKHWQVDYTGRCPVAH,soluble
6,MGSDKIHHHHHHMISTANLTIQFGPKPLFENVSVKFGEGNRYGLIGANGSGKSTFMKIIGGDLEPSAGNVSLEPGVRLGKLRQDQFAFEEVRVLDVVMMGHTEMWAAMSERDAIYANPEATEDDYMRAADLEAKFAEYDGYTAEARAGELLLGLEIAVDQHNLLMREIAPGWKLRVLLAQALFSNPDVLLLDEPTNNLDINTIRWLENVLNGYQSTMIIISHDRHFLNQVCTHMADVDYGEIRVYPGNYDDYMLASTQARERLTANNAKAKERIVELQDFVRRFAANKSKSRQATSRLKQIDRIKADQVEVKPSSRQNPYIRFEQNKVMHRLAVTIEKLSKSYDQPVIRDFSAMVDAGEKVAIIGANGVGKTTLLRMLATDLAPDSGTVKWSENADIGYMAQDVSDQFQQGDINLFDWMAEHRQPGDDDQSIRSALGRLLFSGDDLPKAPKVLSGGEKNRMTFGRLMLGRHNVMLLDEPTNHLDMESIESLQFALEKYEGALIFVSHDREFVSGLATRIIEILPDGELVDYRGGYEDYLASRGIEA,not soluble
7,MGSDKIHHHHHHMNKYIMLLMVSLLSACSSTPRKPIPDDPFYAPVYPDAPATQTAATGSIFLDSQASSLYSDIRAHKIGDIITVVLMESTQAKKSATNDIKKGSDMSMDPLFAGGGNVTIKGVPLDLKYKDAYNTKRESDADQSNSLAGSISANVMQVLSNGNLVIRGEKWISINNGDEFIRVTGIVRSQDIKPDNTIESVRVANARIQYSGTGTFADAQKVGWLGQFFLGEWWPF,not soluble
8,MGSDKIHHHHHHMPKITKIEVQKKNKERFNLFLDEQFEMGIDIDTLVKFNLKKGQQLEAADMAEIQKYDHYRIGLNKAIQYLSYKKRTEKEVIQYLQKEEISEQAISEVIEYCYREKLIDHQDYAESLKNTMIRTTDKGPKIYQQKLYQLGIEPNIIEIFTELYREQQELDDIIQIAEKISKTKKGPQNKVKEKVMQSLIQKGFEMETIHAVLNEMDFTQDEAVLDDLLQRDLEKIYNKNRKKYTQQKLISKTIEGLMRKGYKYDKIKAKLEESGIADGTEEIE,not soluble
9,MFFTDESGIHHDPSKVRRLGLYNVPVDYPSRKLNVLASIPLFDGVPCFMFTYSNVNSEIFAEFLRLFRNSGPIVLILDNAKFHKNAYVFSVASQLGITLLFLPPYSPDLNPIELVWKDLKRWVNTYYNLEYTLDSMEEEFYYLFLRECSQTVMKFKKRL,soluble
10,VTAHSIARRFGAPIETLARAADRIGEGDFDVTLPMTNVAEVGQLTRRFGLMAEALRQYRKTSVEEVLSGERRLQAVLDSIDDGLVIFDNQGRIEHANPVAIRQLFVSNDPHGKRIDEILSDVDVQEAVEKALLGEVQDEAMPDLVVDVAGESRLLAWSLYPVTHPGGHSVGAVLVVRDVTEQRAFERVRSEFVLRASHELRTPVTGMQMAFSLLRERLDFPAESREADLIQTVDEEMSRLVLLINDLLNFSRYQTGMQKLELASCDLVDLLTQAQQRFIPKGEARRVSLQLELGDELPRLQLDRLQIERVIDNLLENALRHSSEGGQIHLQARRQGDRVLIAVEDNGEGIPFSQQGRIFEPFVQVGRKKGGAGLGLALCKEIIQLHGGRIAVRSQPGQGARFYMLLP,not soluble
11,AQEPVKGPVSTKPGSCPIILIRCAMLNPPNRCLKDTDCPGIKKCCEGSCGMACFVPQ,soluble
12,MSLAKIPVLEIFGPTIQGEGRVIGRKTMFVRTAGCDYRCSWCDSAFTWDGSAKGDIKLMTAEEIYDELKRIGGDLFNHVTISGGNPALIKGIQELVDLFQDKGIFSALETQGSKFQPWMTQIDDLTISPKPPSSTMTPDLKKLDEVITQCVPSSLNLKVVVFDDKDYDFAKMIHHRYPDIPFYLQVGNPYLSDSVDNHTEKLLERYEQLVDLVMQSNDMNHVYVLPQLHTLLWSNKKGVEGHHHHHH,soluble
13,MSLGYATAHRRVRHLSADQVITRPETLAVEEPLEIRVNGTPVTVTMRTPGSDFELVQGFLLAEGVVAHREDVLTVSYCGRRVEGNATGASTYNVLDVALAPGVKPPDVDVTRTFYTTSSCGVCGKASLQAVSQVSRFAPGGDPATVAADTLKAMPDQLRRAQKVFARTGGLHAAALFGVDGAMLAVREDIGRHNAVDKVIGWAFERDRIPLGASVLLVSGRASFELTQKALMAGIPVLAAVSAPSSLAVSLADASGITLVAFLRGDSMNVYTRADRITEGHHHHHH,soluble
14,MSAAPGTISPPARELKTSAICGYLHRIEVRSIGLITRRRYWFALCDSTPYLYWYKDSDDIKCIGRVSLSGAAFTYDPREKGRFEIHSNNEVIALECSSDKQRNEWMKALQSTRKRSWKATKSKSDSSLDISSLTGRNSSSVLEECSSPSPVPPPRSPKPKKRTQFLTEEETDAETSSDVPHSSEETAEVVEDTDNTKIPAEGSATEWYLNPNGQLNERSLQMPKTIESPETVLKRLADQSIEAPFRAIRRNLSTWSRSRQNTSDEPVVGSRKGTVSSVDLTPEEKVIELSDKVSSLEEVVDSLRAALLLAQRNNEALQKIEDMGDNKEEMREYILEKERQVTELHISNSMNARRVRDLEDQNVRLEDTINDLQQSVEAFRESLRTKEELILRMCEEENREDLLGSISERSSNIPADANGLVSDVEVPEGILVDVSSVDCEEATRKVLDEENVRDIGELQDLVEGYRTQNQFLNAEIVQLHAITQSLEDREKKLIRQNFDLEACYYQLKSRYLMVLNHFKSPTKPGKIMEPGVLKELLEESARTPRESQQNLTDQLGFYKKDDFSESDDLLDTATFYMKKAGDVVEATKLEQSEEYMKWLQSWDAFLVNNTVSRQTAIMSSPDLKTLIRTGVPPAYRGRVWKIIVTHWVKDKQAELGNGYYQSMLRKAGTKKQDGSYDAAIKQIDLDLARTLPTNKLFDEPDSANIEKLRNVLYAFRYHNSHVGYCQGLNRLAAIALLNLDEQDSFWFLVACVEHLQPEGYYTSSLIGAVADQKVLRDLVAEKLPKLAAHLRALEVDLSLFALSWFLTCFVDVLPHSIYLTIFDAFLYEGNKVLFRFALALFKICEPHVLQCKTIGTVHQCLSKAQEHIIDFKSLAQVAFNELNPFPQKTIETKRQLYLTQLKDTGHCM,not soluble
15,MHHHHHHSSGVDLGTENLYFQSNAMNFKLNNTLSNEINTLIIGIPEHLNQLERISFNHIDITESLERLKHQHIIGSKVGKIYTTAFDVQDQTYRLITVGLGNLKTRSYQDMLKIWGHLFQYIKSEHIEDTYLLMDSFISKYDQLSDVLMACGIQSERATYEFDHYKSSKKAPFKTNLNLISESLIELDFIHEGISIGQSINLARDFSNMPPNVLTPQTFAEDIVNHFKNTKVKVDVKDYDTLVSEGFGLLQAVGKGSKHKPRLVTITYNGKDKDEAPIALVGKGITYDSGGYSIKTKNGMATMKFDMCGAANVVGIIEAASRLQLPVNIVGVLACAENMINEASMKPDDVFTALSGETVEVMNTDAEGRLVLADAVFYANQYQPSVIMDFATLTGAAIVALGDDKAAAFESNSKVILNDILQISSEVDEMVFELPITATERASIKHSDIADLVNHTNGQGKALFAASFVTHFSGQTPHIHFDIAGPATTNKASYNGPKGPTGFMIPTIVQWLKQQ,soluble
16,MAKYTREDIEKLVKEENVKYIRLQFTDILGTIKNVEIPVSQLGKALDNKVMFDGSSIEGFVRIEESDMYLYPDLNTFVIFPWTAEKGKVARFICDIYNPDGTPFEGDPRNNLKRILKEMEDLGFSDFNLGPEPEFFLFKLDEKGEPTLELNDKGGYFDLAPTDLGENCRRDIVLELEEMGFEIEASHHEVAPGQHEIDFKYAGAVRSCDDIQTFKLVVKTIARKHGLHATFMPKPLFGVNGSGMHCNLSLFKNGVNAFFDENADLQLSETAKHFIAGIVKHATSFTAVTNPTVNSYKRLVPGYEAPCYVAWSAQNRSPLIRIPASRGISTRVEVRSVDPAANPYLALSVLLAAGLDGIKNKLEAPAPIDRNIYVMSKEERMENGIVDLPATLAEALEEFKSNEVMVKALGEHLFEHFIEAKEIEWDMFRTQVHPWEREQYMSQY,not soluble
17,MSLIQQQPIKPLANSQVCCSDFSQYPWIQLATTEDINFQLDKDSPIGHFSDGNSYFNAFKFAERSGKVQLRLSSLMINDSVAAPKLIALDHEFNVVSTTSLDQFDVKPSDAFTRTQFQLNFQLNAAKTPYFIIYSSNEYLGQSIKVKHPARIRAEELGEPMPMVTDPTYAYERFGKLKLSIKTLSLQADKQADQQPKVAIKSAQPETHTFYKEAIVEAVKTNDIPKALALLEEAKSLGIQDAQDTFVQALESQKEGHHHHHH,soluble
18,GMGSSRKVIITCAVTGAIHTPSMSPYLPVTPDEVAQASIGAAEAGAAVIHLHARDPRDGRPTQDPAAFAEFLPRIKSNTDAVINLTTGGSPHMTVEERLRPATHYMPELASLNMGSMNFGLYPMLERFKEFAHGWEREHLERSRDLVFKNTFADIEFILKTCGGNGTRFEFECYDTSHLYNLAHFVDRKLATPPFFVQTVFGLLGGIGPHPEDLAHMRRTADRLFGADYVWSILGAGRHQIPLASIGAAQGANVRVGLEDSLWIAPGELAETNAAQVRKIRQVIEGLSLEVASPAEARTMLGLKGPQNVNF,soluble
